Tests used:
VEGF = target: T1, VEGF (UniProt P15692-4 27-191, limits assumed, biotinylated); assay: direct bind ELISA, C-term VD;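 note: ELISA with antibody or DVD-Ig preparations applied to target antigen-coated plates for 1 h at room temperature, TMB colour development, absorbance read at 450 nm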
T1 construct: ELISA antigen

EGFR [1] = target: T2, EGFR (UniProt P00533 25-645, limits assumed, biotinylated); assay: direct bind ELISA, N-term VD;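 note: antibody or DVD-Ig preparations bound to immobilized target antigen on ELISA plates, 1 h at room temperature, TMB detection read as absorbance at 450 nm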
T2 construct: ELISA antigen; construct not described

EGFR [2] = target: T2, EGFR; assay: direct bind ELISA, C-term VD;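 note: ELISA with antibody or DVD-Ig preparations applied to target antigen-coated plates for 1 h at room temperature, TMB colour development, absorbance read at 450 nm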
ErbB3 = target: T3, ErbB3 (UniProt P21860 20-643, limits assumed, biotinylated); assay: direct bind ELISA, N-term VD;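 note: antibody or DVD-Ig preparations bound to immobilized target antigen on ELISA plates, 1 h at room temperature, TMB detection read as absorbance at 450 nm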
T3 construct: ELISA antigen

B1: DVD789 (bispecific antibody)
VH: QVQLQESGPGLVKPSQTLSLTCTVSGYSISSDFAWNWIRQPPGKGLEWMGYISYSGNTRYQPSLKSRITISRDTSKNQFFLKLNSVTAADTATYYCVTAGRGFPYWGQGTLVTVSSASTKGPSVFPLAPEVQLVESGGGLVQPGGSLRLSCAASGFTISDYWIHWVRQAPGKGLEWVAGITPAGGYTYYADSVKGRFTISADTSKNTAYLQMNSLRAEDTAVYYCARFVFFLPYAMDYWGQGTLVTVSS
VL: DIQMTQSPSSMSVSVGDRVTITCHSSQDINSNIGWLQQKPGKSFKGLIYHGTNLDDGVPSRFSGSGSGTDYTLTISSLQPEDFATYYCVQYAQFPWTFGGGTKLEIKRTVAAPSVFIFPPDIQMTQSPSSLSASVGDRVTITCRASQDVSTAVAWYQQKPGKAPKLLIYSASFLYSGVPSRFSGSGSGTDFTLTISSLQPEDFATYYCQQSYTTPPTFGQGTKVEIKR
notes: DVD-Ig; HC L, LC L; variable parts only
VEGF
  EC50: 46 nM
EGFR [1]
  EC50: 14.6 nM

B2: DVD849 (bispecific antibody)
VH: QVQLQESGPGLVKPSQTLSLTCTVSGYSISSDFAWNWIRQPPGKGLEWMGYISYSGNTRYQPSLKSRITISRDTSKNQFFLKLNSVTAADTATYYCVTAGRGFPYWGQGTLVTVSSASTKGPEVQLVESGGGLVQPGGSLRLSCAASGFTISDYWIHWVRQAPGKGLEWVAGITPAGGYTYYADSVKGRFTISADTSKNTAYLQMNSLRAEDTAVYYCARFVFFLPYAMDYWGQGTLVTVSS
VL: DIQMTQSPSSMSVSVGDRVTITCHSSQDINSNIGWLQQKPGKSFKGLIYHGTNLDDGVPSRFSGSGSGTDYTLTISSLQPEDFATYYCVQYAQFPWTFGGGTKLEIKRTVAAPSVFIFPPDIQMTQSPSSLSASVGDRVTITCRASQDVSTAVAWYQQKPGKAPKLLIYSASFLYSGVPSRFSGSGSGTDFTLTISSLQPEDFATYYCQQSYTTPPTFGQGTKVEIKR
notes: DVD-Ig; HC S, LC L; variable parts only
VEGF
  EC50: 59.6 nM
EGFR [1]
  EC50: 12.3 nM

B3: DVD819 (bispecific antibody)
VH: QVQLQESGPGLVKPSQTLSLTCTVSGYSISSDFAWNWIRQPPGKGLEWMGYISYSGNTRYQPSLKSRITISRDTSKNQFFLKLNSVTAADTATYYCVTAGRGFPYWGQGTLVTVSSASTKGPSVFPLAPEVQLVESGGGLVQPGGSLRLSCAASGFTISDYWIHWVRQAPGKGLEWVAGITPAGGYTYYADSVKGRFTISADTSKNTAYLQMNSLRAEDTAVYYCARFVFFLPYAMDYWGQGTLVTVSS
VL: DIQMTQSPSSMSVSVGDRVTITCHSSQDINSNIGWLQQKPGKSFKGLIYHGTNLDDGVPSRFSGSGSGTDYTLTISSLQPEDFATYYCVQYAQFPWTFGGGTKLEIKRTVAAPDIQMTQSPSSLSASVGDRVTITCRASQDVSTAVAWYQQKPGKAPKLLIYSASFLYSGVPSRFSGSGSGTDFTLTISSLQPEDFATYYCQQSYTTPPTFGQGTKVEIKR
notes: DVD-Ig; HC L, LC S; variable parts only
VEGF
  EC50: 36.4 nM
EGFR [1]
  EC50: 12.2 nM

B4: DVD756 (bispecific antibody)
VH: EVQLLESGGGLVQPGGSLRLSCAASGFTFSHYVMAWVRQAPGKGLEWVSSISSSGGWTLYADSVKGRFTISRDNSKNTLYLQMNSLRAEDTAVYYCTRGLKMATIFDYWGQGTLVTVSSASTKGPQVQLQESGPGLVKPSQTLSLTCTVSGYSISSDFAWNWIRQPPGKGLEWMGYISYSGNTRYQPSLKSRITISRDTSKNQFFLKLNSVTAADTATYYCVTAGRGFPYWGQGTLVTVSS
VL: QSALTQPASVSGSPGQSITISCTGTSSDVGSYNVVSWYQQHPGKAPKLIIYEVSQRPSGVSNRFSGSKSGNTASLTISGLQTEDEADYYCCSYAGSSIFVIFGGGTKVTVLGQPKAAPDIQMTQSPSSMSVSVGDRVTITCHSSQDINSNIGWLQQKPGKSFKGLIYHGTNLDDGVPSRFSGSGSGTDYTLTISSLQPEDFATYYCVQYAQFPWTFGGGTKLEIKR
notes: DVD-Ig; HC S, LC S; variable parts only
EGFR [2]
  EC50: 48.9 nM
ErbB3
  EC50: 3.94 nM

B5: DVD779 (bispecific antibody)
VH: QVQLQESGPGLVKPSQTLSLTCTVSGYSISSDFAWNWIRQPPGKGLEWMGYISYSGNTRYQPSLKSRITISRDTSKNQFFLKLNSVTAADTATYYCVTAGRGFPYWGQGTLVTVSSASTKGPSVFPLAPEVQLVESGGGLVQPGGSLRLSCAASGYTFTNYGMNWVRQAPGKGLEWVGWINTYTGEPTYAADFKRRFTFSLDTSKSTAYLQMNSLRAEDTAVYYCAKYPHYYGSSHWYFDVWGQGTLVTVSS
VL: DIQMTQSPSSMSVSVGDRVTITCHSSQDINSNIGWLQQKPGKSFKGLIYHGTNLDDGVPSRFSGSGSGTDYTLTISSLQPEDFATYYCVQYAQFPWTFGGGTKLEIKRTVAAPSVFIFPPDIQMTQSPSSLSASVGDRVTITCSASQDISNYLNWYQQKPGKAPKVLIYFTSSLHSGVPSRFSGSGSGTDFTLTISSLQPEDFATYYCQQYSTVPWTFGQGTKVEIKR
notes: as for B1
VEGF
  EC50: 0.24 nM
EGFR [1]
  EC50: 10.6 nM

B6: DVD809 (bispecific antibody)
VH: QVQLQESGPGLVKPSQTLSLTCTVSGYSISSDFAWNWIRQPPGKGLEWMGYISYSGNTRYQPSLKSRITISRDTSKNQFFLKLNSVTAADTATYYCVTAGRGFPYWGQGTLVTVSSASTKGPSVFPLAPEVQLVESGGGLVQPGGSLRLSCAASGYTFTNYGMNWVRQAPGKGLEWVGWINTYTGEPTYAADFKRRFTFSLDTSKSTAYLQMNSLRAEDTAVYYCAKYPHYYGSSHWYFDVWGQGTLVTVSS
VL: DIQMTQSPSSMSVSVGDRVTITCHSSQDINSNIGWLQQKPGKSFKGLIYHGTNLDDGVPSRFSGSGSGTDYTLTISSLQPEDFATYYCVQYAQFPWTFGGGTKLEIKRTVAAPDIQMTQSPSSLSASVGDRVTITCSASQDISNYLNWYQQKPGKAPKVLIYFTSSLHSGVPSRFSGSGSGTDFTLTISSLQPEDFATYYCQQYSTVPWTFGQGTKVEIKR
notes: as for B3
VEGF
  EC50: 0.23 nM
EGFR [1]
  EC50: 7.34 nM

B7: DVD839 (bispecific antibody)
VH: QVQLQESGPGLVKPSQTLSLTCTVSGYSISSDFAWNWIRQPPGKGLEWMGYISYSGNTRYQPSLKSRITISRDTSKNQFFLKLNSVTAADTATYYCVTAGRGFPYWGQGTLVTVSSASTKGPEVQLVESGGGLVQPGGSLRLSCAASGYTFTNYGMNWVRQAPGKGLEWVGWINTYTGEPTYAADFKRRFTFSLDTSKSTAYLQMNSLRAEDTAVYYCAKYPHYYGSSHWYFDVWGQGTLVTVSS
VL: DIQMTQSPSSMSVSVGDRVTITCHSSQDINSNIGWLQQKPGKSFKGLIYHGTNLDDGVPSRFSGSGSGTDYTLTISSLQPEDFATYYCVQYAQFPWTFGGGTKLEIKRTVAAPSVFIFPPDIQMTQSPSSLSASVGDRVTITCSASQDISNYLNWYQQKPGKAPKVLIYFTSSLHSGVPSRFSGSGSGTDFTLTISSLQPEDFATYYCQQYSTVPWTFGQGTKVEIKR
notes: as for B2
VEGF
  EC50: 0.26 nM
EGFR [1]
  EC50: 12.5 nM

B8: DVD791 (bispecific antibody)
VH: QVQLQESGPGLVKPSQTLSLTCTVSGYSISSDFAWNWIRQPPGKGLEWMGYISYSGNTRYQPSLKSRITISRDTSKNQFFLKLNSVTAADTATYYCVTAGRGFPYWGQGTLVTVSSASTKGPSVFPLAPEVQLVESGGGLVQPGGSLRLSCAASGFTINASWIHWVRQAPGKGLEWVGAIYPYSGYTNYADSVKGRFTISADTSKNTAYLQMNSLRAEDTAVYYCARWGHSTSPWAMDYWGQGTLVTVSS
VL: DIQMTQSPSSMSVSVGDRVTITCHSSQDINSNIGWLQQKPGKSFKGLIYHGTNLDDGVPSRFSGSGSGTDYTLTISSLQPEDFATYYCVQYAQFPWTFGGGTKLEIKRTVAAPSVFIFPPDIQMTQSPSSLSASVGDRVTITCRASQVIRRSLAWYQQKPGKAPKLLIYAASNLASGVPSRFSGSGSGTDFTLTISSLQPEDFATYYCQQSNTSPLTFGQGTKVEIKR
notes: as for B1
VEGF
  EC50: 11.6 nM
EGFR [1]
  EC50: 8.24 nM

B9: DVD821 (bispecific antibody)
VH: QVQLQESGPGLVKPSQTLSLTCTVSGYSISSDFAWNWIRQPPGKGLEWMGYISYSGNTRYQPSLKSRITISRDTSKNQFFLKLNSVTAADTATYYCVTAGRGFPYWGQGTLVTVSSASTKGPSVFPLAPEVQLVESGGGLVQPGGSLRLSCAASGFTINASWIHWVRQAPGKGLEWVGAIYPYSGYTNYADSVKGRFTISADTSKNTAYLQMNSLRAEDTAVYYCARWGHSTSPWAMDYWGQGTLVTVSS
VL: DIQMTQSPSSMSVSVGDRVTITCHSSQDINSNIGWLQQKPGKSFKGLIYHGTNLDDGVPSRFSGSGSGTDYTLTISSLQPEDFATYYCVQYAQFPWTFGGGTKLEIKRTVAAPDIQMTQSPSSLSASVGDRVTITCRASQVIRRSLAWYQQKPGKAPKLLIYAASNLASGVPSRFSGSGSGTDFTLTISSLQPEDFATYYCQQSNTSPLTFGQGTKVEIKR
notes: as for B3
VEGF
  EC50: 11.1 nM
EGFR [1]
  EC50: 6.96 nM

B10: DVD851 (bispecific antibody)
VH: QVQLQESGPGLVKPSQTLSLTCTVSGYSISSDFAWNWIRQPPGKGLEWMGYISYSGNTRYQPSLKSRITISRDTSKNQFFLKLNSVTAADTATYYCVTAGRGFPYWGQGTLVTVSSASTKGPEVQLVESGGGLVQPGGSLRLSCAASGFTINASWIHWVRQAPGKGLEWVGAIYPYSGYTNYADSVKGRFTISADTSKNTAYLQMNSLRAEDTAVYYCARWGHSTSPWAMDYWGQGTLVTVSS
VL: DIQMTQSPSSMSVSVGDRVTITCHSSQDINSNIGWLQQKPGKSFKGLIYHGTNLDDGVPSRFSGSGSGTDYTLTISSLQPEDFATYYCVQYAQFPWTFGGGTKLEIKRTVAAPSVFIFPPDIQMTQSPSSLSASVGDRVTITCRASQVIRRSLAWYQQKPGKAPKLLIYAASNLASGVPSRFSGSGSGTDFTLTISSLQPEDFATYYCQQSNTSPLTFGQGTKVEIKR
notes: as for B2
VEGF
  EC50: 28.4 nM
EGFR [1]
  EC50: 9.36 nM

B11: DVD337 (bispecific antibody)
VH: QVQLQESGPGLVKPSQTLSLTCTVSGYSISSDFAWNWIRQPPGKGLEWMGYISYSGNTRYQPSLKSRITISRDTSKNQFFLKLNSVTAADTATYYCVTAGRGFPYWGQGTLVTVSSASTKGPEVQLVESGGGLVQPGGSLRLSCAASGYTFTNYGMNWVRQAPGKGLEWVGWINTYTGEPTYAADFKRRFTFSLDTSKSTAYLQMNSLRAEDTAVYYCAKYPHYYGSSHWYFDVWGQGTLVTVSS
VL: DIQMTQSPSSMSVSVGDRVTITCHSSQDINSNIGWLQQKPGKSFKGLIYHGTNLDDGVPSRFSGSGSGTDYTLTISSLQPEDFATYYCVQYAQFPWTFGGGTKLEIKRTVAAPDIQMTQSPSSLSASVGDRVTITCSASQDISNYLNWYQQKPGKAPKVLIYFTSSLHSGVPSRFSGSGSGTDFTLTISSLQPEDFATYYCQQYSTVPWTFGQGTKVEIKR
notes: as for B4
VEGF
  EC50: 0.57 nM
EGFR [1]
  EC50: 6.5 nM

Reference: patent publication US20110263827A1 (AbbVie / Abbott, published 2011)
